Laboratory results reported in patent US20210388087A1.

B1: H183/L072 VH N53A (antibody, name in Kabat numbering, V domains shown)
VH: QVQLVESGGGLVQPGRSLRLSCAASGFTFSNAWMHWVRQAPGKGLEWVAQIKDKGAAYAAYYAPSVKGRFTISRDDSKNSIYLQMNSLKTEDTAVYYCHYVHYASASTVLPAFGVDAWGQGTTVTVSS
VL: DIVMTQSPLSLPVTPGEPASISCQASQELVHMNRNTYLHWYQQKPGQAPRLLIYKVSNRFPGVPDRFSGSGSGTDFTLKISRVEAEDVGVYYCAQGTSVPFTFGQGTKLEIK
B2: H183/L072 VH W33I (antibody, name in Kabat numbering, V domains shown)
VH: QVQLVESGGGLVQPGRSLRLSCAASGFTFSNAIMHWVRQAPGKGLEWVAQIKDKGNAYAAYYAPSVKGRFTISRDDSKNSIYLQMNSLKTEDTAVYYCHYVHYASASTVLPAFGVDAWGQGTTVTVSS
VL: DIVMTQSPLSLPVTPGEPASISCQASQELVHMNRNTYLHWYQQKPGQAPRLLIYKVSNRFPGVPDRFSGSGSGTDFTLKISRVEAEDVGVYYCAQGTSVPFTFGQGTKLEIK
B3: H183/L072 VH H35I (antibody, name in Kabat numbering, V domains shown)
VH: QVQLVESGGGLVQPGRSLRLSCAASGFTFSNAWMIWVRQAPGKGLEWVAQIKDKGNAYAAYYAPSVKGRFTISRDDSKNSIYLQMNSLKTEDTAVYYCHYVHYASASTVLPAFGVDAWGQGTTVTVSS
VL: DIVMTQSPLSLPVTPGEPASISCQASQELVHMNRNTYLHWYQQKPGQAPRLLIYKVSNRFPGVPDRFSGSGSGTDFTLKISRVEAEDVGVYYCAQGTSVPFTFGQGTKLEIK
B4: H183/L072 VH K52I (antibody, name in Kabat numbering, V domains shown)
VH: QVQLVESGGGLVQPGRSLRLSCAASGFTFSNAWMHWVRQAPGKGLEWVAQIIDKGNAYAAYYAPSVKGRFTISRDDSKNSIYLQMNSLKTEDTAVYYCHYVHYASASTVLPAFGVDAWGQGTTVTVSS
VL: DIVMTQSPLSLPVTPGEPASISCQASQELVHMNRNTYLHWYQQKPGQAPRLLIYKVSNRFPGVPDRFSGSGSGTDFTLKISRVEAEDVGVYYCAQGTSVPFTFGQGTKLEIK
B5: H183/L072 VH D52aI (antibody, name in Kabat numbering, V domains shown)
VH: QVQLVESGGGLVQPGRSLRLSCAASGFTFSNAWMHWVRQAPGKGLEWVAQIKIKGNAYAAYYAPSVKGRFTISRDDSKNSIYLQMNSLKTEDTAVYYCHYVHYASASTVLPAFGVDAWGQGTTVTVSS
VL: DIVMTQSPLSLPVTPGEPASISCQASQELVHMNRNTYLHWYQQKPGQAPRLLIYKVSNRFPGVPDRFSGSGSGTDFTLKISRVEAEDVGVYYCAQGTSVPFTFGQGTKLEIK
B6: H183/L072 VH N53I (antibody, name in Kabat numbering, V domains shown)
VH: QVQLVESGGGLVQPGRSLRLSCAASGFTFSNAWMHWVRQAPGKGLEWVAQIKDKGIAYAAYYAPSVKGRFTISRDDSKNSIYLQMNSLKTEDTAVYYCHYVHYASASTVLPAFGVDAWGQGTTVTVSS
VL: DIVMTQSPLSLPVTPGEPASISCQASQELVHMNRNTYLHWYQQKPGQAPRLLIYKVSNRFPGVPDRFSGSGSGTDFTLKISRVEAEDVGVYYCAQGTSVPFTFGQGTKLEIK
B7: H183/L072 VH Y55I (antibody, name in Kabat numbering, V domains shown)
VH: QVQLVESGGGLVQPGRSLRLSCAASGFTFSNAWMHWVRQAPGKGLEWVAQIKDKGNAIAAYYAPSVKGRFTISRDDSKNSIYLQMNSLKTEDTAVYYCHYVHYASASTVLPAFGVDAWGQGTTVTVSS
VL: DIVMTQSPLSLPVTPGEPASISCQASQELVHMNRNTYLHWYQQKPGQAPRLLIYKVSNRFPGVPDRFSGSGSGTDFTLKISRVEAEDVGVYYCAQGTSVPFTFGQGTKLEIK
B8: H183/L072 VH H35L (antibody, name in Kabat numbering, V domains shown)
VH: QVQLVESGGGLVQPGRSLRLSCAASGFTFSNAWMLWVRQAPGKGLEWVAQIKDKGNAYAAYYAPSVKGRFTISRDDSKNSIYLQMNSLKTEDTAVYYCHYVHYASASTVLPAFGVDAWGQGTTVTVSS
VL: DIVMTQSPLSLPVTPGEPASISCQASQELVHMNRNTYLHWYQQKPGQAPRLLIYKVSNRFPGVPDRFSGSGSGTDFTLKISRVEAEDVGVYYCAQGTSVPFTFGQGTKLEIK
B9: H183/L072 VH D52aL (antibody, name in Kabat numbering, V domains shown)
VH: QVQLVESGGGLVQPGRSLRLSCAASGFTFSNAWMHWVRQAPGKGLEWVAQIKLKGNAYAAYYAPSVKGRFTISRDDSKNSIYLQMNSLKTEDTAVYYCHYVHYASASTVLPAFGVDAWGQGTTVTVSS
VL: DIVMTQSPLSLPVTPGEPASISCQASQELVHMNRNTYLHWYQQKPGQAPRLLIYKVSNRFPGVPDRFSGSGSGTDFTLKISRVEAEDVGVYYCAQGTSVPFTFGQGTKLEIK
B10: H183/L072 VH N53L (antibody, name in Kabat numbering, V domains shown)
VH: QVQLVESGGGLVQPGRSLRLSCAASGFTFSNAWMHWVRQAPGKGLEWVAQIKDKGLAYAAYYAPSVKGRFTISRDDSKNSIYLQMNSLKTEDTAVYYCHYVHYASASTVLPAFGVDAWGQGTTVTVSS
VL: DIVMTQSPLSLPVTPGEPASISCQASQELVHMNRNTYLHWYQQKPGQAPRLLIYKVSNRFPGVPDRFSGSGSGTDFTLKISRVEAEDVGVYYCAQGTSVPFTFGQGTKLEIK
B11: H183/L072 VH A57L (antibody, name in Kabat numbering, V domains shown)
VH: QVQLVESGGGLVQPGRSLRLSCAASGFTFSNAWMHWVRQAPGKGLEWVAQIKDKGNAYALYYAPSVKGRFTISRDDSKNSIYLQMNSLKTEDTAVYYCHYVHYASASTVLPAFGVDAWGQGTTVTVSS
VL: DIVMTQSPLSLPVTPGEPASISCQASQELVHMNRNTYLHWYQQKPGQAPRLLIYKVSNRFPGVPDRFSGSGSGTDFTLKISRVEAEDVGVYYCAQGTSVPFTFGQGTKLEIK
B12: H183/L072 VH N31M (antibody, name in Kabat numbering, V domains shown)
VH: QVQLVESGGGLVQPGRSLRLSCAASGFTFSMAWMHWVRQAPGKGLEWVAQIKDKGNAYAAYYAPSVKGRFTISRDDSKNSIYLQMNSLKTEDTAVYYCHYVHYASASTVLPAFGVDAWGQGTTVTVSS
VL: DIVMTQSPLSLPVTPGEPASISCQASQELVHMNRNTYLHWYQQKPGQAPRLLIYKVSNRFPGVPDRFSGSGSGTDFTLKISRVEAEDVGVYYCAQGTSVPFTFGQGTKLEIK
B13: H183/L072 VH W33M (antibody, name in Kabat numbering, V domains shown)
VH: QVQLVESGGGLVQPGRSLRLSCAASGFTFSNAMMHWVRQAPGKGLEWVAQIKDKGNAYAAYYAPSVKGRFTISRDDSKNSIYLQMNSLKTEDTAVYYCHYVHYASASTVLPAFGVDAWGQGTTVTVSS
VL: DIVMTQSPLSLPVTPGEPASISCQASQELVHMNRNTYLHWYQQKPGQAPRLLIYKVSNRFPGVPDRFSGSGSGTDFTLKISRVEAEDVGVYYCAQGTSVPFTFGQGTKLEIK
B14: H183/L072 VH H35M (antibody, name in Kabat numbering, V domains shown)
VH: QVQLVESGGGLVQPGRSLRLSCAASGFTFSNAWMMWVRQAPGKGLEWVAQIKDKGNAYAAYYAPSVKGRFTISRDDSKNSIYLQMNSLKTEDTAVYYCHYVHYASASTVLPAFGVDAWGQGTTVTVSS
VL: DIVMTQSPLSLPVTPGEPASISCQASQELVHMNRNTYLHWYQQKPGQAPRLLIYKVSNRFPGVPDRFSGSGSGTDFTLKISRVEAEDVGVYYCAQGTSVPFTFGQGTKLEIK
B15: H183/L072 VH D52aM (antibody, name in Kabat numbering, V domains shown)
VH: QVQLVESGGGLVQPGRSLRLSCAASGFTFSNAWMHWVRQAPGKGLEWVAQIKMKGNAYAAYYAPSVKGRFTISRDDSKNSIYLQMNSLKTEDTAVYYCHYVHYASASTVLPAFGVDAWGQGTTVTVSS
VL: DIVMTQSPLSLPVTPGEPASISCQASQELVHMNRNTYLHWYQQKPGQAPRLLIYKVSNRFPGVPDRFSGSGSGTDFTLKISRVEAEDVGVYYCAQGTSVPFTFGQGTKLEIK
B16: H183/L072 VH N53M (antibody, name in Kabat numbering, V domains shown)
VH: QVQLVESGGGLVQPGRSLRLSCAASGFTFSNAWMHWVRQAPGKGLEWVAQIKDKGMAYAAYYAPSVKGRFTISRDDSKNSIYLQMNSLKTEDTAVYYCHYVHYASASTVLPAFGVDAWGQGTTVTVSS
VL: DIVMTQSPLSLPVTPGEPASISCQASQELVHMNRNTYLHWYQQKPGQAPRLLIYKVSNRFPGVPDRFSGSGSGTDFTLKISRVEAEDVGVYYCAQGTSVPFTFGQGTKLEIK
B17: H183/L072 VH A32P (antibody, name in Kabat numbering, V domains shown)
VH: QVQLVESGGGLVQPGRSLRLSCAASGFTFSNPWMHWVRQAPGKGLEWVAQIKDKGNAYAAYYAPSVKGRFTISRDDSKNSIYLQMNSLKTEDTAVYYCHYVHYASASTVLPAFGVDAWGQGTTVTVSS
VL: DIVMTQSPLSLPVTPGEPASISCQASQELVHMNRNTYLHWYQQKPGQAPRLLIYKVSNRFPGVPDRFSGSGSGTDFTLKISRVEAEDVGVYYCAQGTSVPFTFGQGTKLEIK
B18: H183/L072 VH W33P (antibody, name in Kabat numbering, V domains shown)
VH: QVQLVESGGGLVQPGRSLRLSCAASGFTFSNAPMHWVRQAPGKGLEWVAQIKDKGNAYAAYYAPSVKGRFTISRDDSKNSIYLQMNSLKTEDTAVYYCHYVHYASASTVLPAFGVDAWGQGTTVTVSS
VL: DIVMTQSPLSLPVTPGEPASISCQASQELVHMNRNTYLHWYQQKPGQAPRLLIYKVSNRFPGVPDRFSGSGSGTDFTLKISRVEAEDVGVYYCAQGTSVPFTFGQGTKLEIK
B19: H183/L072 VH H35P (antibody, name in Kabat numbering, V domains shown)
VH: QVQLVESGGGLVQPGRSLRLSCAASGFTFSNAWMPWVRQAPGKGLEWVAQIKDKGNAYAAYYAPSVKGRFTISRDDSKNSIYLQMNSLKTEDTAVYYCHYVHYASASTVLPAFGVDAWGQGTTVTVSS
VL: DIVMTQSPLSLPVTPGEPASISCQASQELVHMNRNTYLHWYQQKPGQAPRLLIYKVSNRFPGVPDRFSGSGSGTDFTLKISRVEAEDVGVYYCAQGTSVPFTFGQGTKLEIK
B20: H183/L072 VH Q50P (antibody, name in Kabat numbering, V domains shown)
VH: QVQLVESGGGLVQPGRSLRLSCAASGFTFSNAWMHWVRQAPGKGLEWVAPIKDKGNAYAAYYAPSVKGRFTISRDDSKNSIYLQMNSLKTEDTAVYYCHYVHYASASTVLPAFGVDAWGQGTTVTVSS
VL: DIVMTQSPLSLPVTPGEPASISCQASQELVHMNRNTYLHWYQQKPGQAPRLLIYKVSNRFPGVPDRFSGSGSGTDFTLKISRVEAEDVGVYYCAQGTSVPFTFGQGTKLEIK
B21: H183/L072 VH I51P (antibody, name in Kabat numbering, V domains shown)
VH: QVQLVESGGGLVQPGRSLRLSCAASGFTFSNAWMHWVRQAPGKGLEWVAQPKDKGNAYAAYYAPSVKGRFTISRDDSKNSIYLQMNSLKTEDTAVYYCHYVHYASASTVLPAFGVDAWGQGTTVTVSS
VL: DIVMTQSPLSLPVTPGEPASISCQASQELVHMNRNTYLHWYQQKPGQAPRLLIYKVSNRFPGVPDRFSGSGSGTDFTLKISRVEAEDVGVYYCAQGTSVPFTFGQGTKLEIK

Molecular target: Human CD137 ECD (human)
Sequence (chain, as listed by the source limits assumed): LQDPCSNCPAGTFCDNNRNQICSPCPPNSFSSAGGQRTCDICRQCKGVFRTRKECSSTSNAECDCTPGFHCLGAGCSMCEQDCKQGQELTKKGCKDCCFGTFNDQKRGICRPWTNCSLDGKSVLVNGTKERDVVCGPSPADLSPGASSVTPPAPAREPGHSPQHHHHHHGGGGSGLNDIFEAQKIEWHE
Assay: single mutant vs template dBBDu183H

Fold change of affinity, 0 fold:
B1, B2, B3, B4, B5, B6, B7, B8, B9, B10, B11, B12, B13, B14, B15, B16, B17, B18, B19, B20, B21
